Measured values: IntAct's records for PubMed 35512704

B1: Mothers against decapentaplegic homolog 4 (Homo sapiens), Q13485 (parent)
chain: MDNMSITNTPTSNDACLSIVHSLMCHRQGGESETFAKRAIESLVKKLKEKKDELDSLITAITTNGAHPSKCVTIQRTLDGRLQVAGRKGFPHVIYARLWRWPDLHKNELKHVKYCQYAFDLKCDSVCVNPYHYERVVSPGIDLSGLTLQSNAPSSMMVKDEYVHDFEGQPSLSTEGHSIQTIQHPPSNRASTETYSTPALLAPSESNATSTANFPNIPVASTSQPASILGGSHSEGLLQIASGPQPGQQQNGFTGQPATYHHNSTTTWTGSRTAPYTPNLPHHQNGHLQHHPPMPPHPGHYWPVHNELAFQPPISNHPAPEYWCSIAYFEMDVQVGETFKVPSSCPIVTVDGYVDPSGGDRFCLGQLSNVHRTEAIERARLHIGKGVQLECKGEGDVWVRCLSDHAVFVQSYYLDREAGRAPGDAVHKIYPSAYIKVFDLRQCHRQMQQQAATAQAAAAAQAAAVAGNIPGPGSVGGIAPAISLSAAAGIGVDDLRRLCILRMSFVKGWGPDYPRQSIKETPCWIEIHLHRALQLLDEVLHTMPIADPQPLD

Variants of: B1
Conditions: with tfe2_human TCF3, P15923

| Variant | effect of a mutation on the interaction |
| --- | --- |
| G386D | with no effect |

Variants of: B1
Conditions: with tead1_human TEAD1, P28347
Sequence of tead1_human TEAD1, P28347 (P28347 whole entry): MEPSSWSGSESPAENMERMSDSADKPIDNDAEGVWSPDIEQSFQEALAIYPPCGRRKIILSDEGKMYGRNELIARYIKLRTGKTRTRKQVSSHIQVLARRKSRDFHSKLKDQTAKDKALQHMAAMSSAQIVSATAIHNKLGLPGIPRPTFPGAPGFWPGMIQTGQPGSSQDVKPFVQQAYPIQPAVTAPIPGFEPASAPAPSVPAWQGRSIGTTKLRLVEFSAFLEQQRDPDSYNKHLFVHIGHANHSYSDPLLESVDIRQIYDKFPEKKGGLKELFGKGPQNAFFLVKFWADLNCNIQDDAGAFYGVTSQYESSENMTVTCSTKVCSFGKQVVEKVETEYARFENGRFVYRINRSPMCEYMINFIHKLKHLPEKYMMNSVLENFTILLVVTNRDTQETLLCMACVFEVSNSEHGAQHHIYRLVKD

| Variant | effect of a mutation on the interaction |
| --- | --- |
| G386D | with no effect |

Variants of: B1
Conditions: with tead2_human TEAD2, Q15562

| Variant | effect of a mutation on the interaction |
| --- | --- |
| G386D | with no effect |

Variants of: B1
Conditions: with tead3_human TEAD3, Q99594

| Variant | effect of a mutation on the interaction |
| --- | --- |
| G386D | with no effect |

Variants of: B1
Conditions: with tet2_human TET2, Q6N021

| Variant | effect of a mutation on the interaction |
| --- | --- |
| G386D | with no effect |

Variants of: B1
Conditions: with tgfr2_human TGFBR2, P37173

| Variant | effect of a mutation on the interaction |
| --- | --- |
| G386D | with no effect |

Variants of: B1
Conditions: with tnr14_human TNFRSF14, Q92956

| Variant | effect of a mutation on the interaction |
| --- | --- |
| G386D | with no effect |

Variants of: B1
Conditions: with tpx2_human TPX2, Q9ULW0

| Variant | effect of a mutation on the interaction |
| --- | --- |
| G386D | with no effect |

Variants of: B1
Conditions: with trrap_human TRRAP

| Variant | effect of a mutation on the interaction |
| --- | --- |
| G386D | with no effect |

Variants of: B1
Conditions: with tsc2_human TSC2, P49815

| Variant | effect of a mutation on the interaction |
| --- | --- |
| G386D | with no effect |

Variants of: B1
Conditions: with tshr_human TSHR

| Variant | effect of a mutation on the interaction |
| --- | --- |
| G386D | with no effect |

Variants of: B1
Conditions: with vhl_human VHL

| Variant | effect of a mutation on the interaction |
| --- | --- |
| G386D | with no effect |

Variants of: B1
Conditions: with wt1_human WT1, P19544

| Variant | effect of a mutation on the interaction |
| --- | --- |
| G386D | with no effect |

Variants of: B1
Conditions: with wwtr1_human WWTR1, Q9GZV5

| Variant | effect of a mutation on the interaction |
| --- | --- |
| G386D | with no effect |

Variants of: B1
Conditions: with xirp2_human XIRP2, A4UGR9

| Variant | effect of a mutation on the interaction |
| --- | --- |
| G386D | with no effect |

Variants of: B1
Conditions: with xpo1_human XPO1, O14980

| Variant | effect of a mutation on the interaction |
| --- | --- |
| G386D | with no effect |

Variants of: B1
Conditions: with 1433e_human YWHAE

| Variant | effect of a mutation on the interaction |
| --- | --- |
| G386D | with no effect |

Variants of: B1
Conditions: with 1433z_human YWHAZ

| Variant | effect of a mutation on the interaction |
| --- | --- |
| G386D | with no effect |

Variants of: B1
Conditions: with arc1a_human ARPC1A

| Variant | effect of a mutation on the interaction |
| --- | --- |
| G386D | increasing interaction strength |

Variants of: B1
Conditions: with axin2_human AXIN2, Q9Y2T1

| Variant | effect of a mutation on the interaction |
| --- | --- |
| G386D | increasing interaction strength |

Variants of: B1
Conditions: with btg1_human BTG1, P62324
Sequence of btg1_human BTG1, P62324 (P62324 whole entry): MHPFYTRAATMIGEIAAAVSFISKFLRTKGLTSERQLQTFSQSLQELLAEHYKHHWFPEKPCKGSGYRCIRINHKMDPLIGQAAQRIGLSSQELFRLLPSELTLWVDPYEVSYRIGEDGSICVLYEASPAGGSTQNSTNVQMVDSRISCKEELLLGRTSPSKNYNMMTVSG

| Variant | effect of a mutation on the interaction |
| --- | --- |
| G386D | increasing interaction strength |

Variants of: B1
Conditions: with erbb3_human ERBB3, P21860

| Variant | effect of a mutation on the interaction |
| --- | --- |
| G386D | increasing interaction strength |

Variants of: B1
Conditions: with gna13_human GNA13, Q14344
Sequence of gna13_human GNA13, Q14344 (Q14344 whole entry): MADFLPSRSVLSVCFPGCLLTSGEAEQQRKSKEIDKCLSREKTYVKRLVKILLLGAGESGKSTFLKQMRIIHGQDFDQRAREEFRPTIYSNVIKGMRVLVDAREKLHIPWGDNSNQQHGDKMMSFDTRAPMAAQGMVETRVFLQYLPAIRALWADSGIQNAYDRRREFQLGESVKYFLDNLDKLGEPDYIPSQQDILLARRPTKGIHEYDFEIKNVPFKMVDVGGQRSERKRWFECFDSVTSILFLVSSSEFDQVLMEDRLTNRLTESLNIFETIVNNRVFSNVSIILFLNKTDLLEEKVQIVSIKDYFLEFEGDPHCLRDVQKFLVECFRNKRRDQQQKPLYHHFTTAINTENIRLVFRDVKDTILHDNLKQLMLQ

| Variant | effect of a mutation on the interaction |
| --- | --- |
| G386D | increasing interaction strength |

Variants of: B1
Conditions: with gsk3b_human GSK3B

| Variant | effect of a mutation on the interaction |
| --- | --- |
| G386D | increasing interaction strength |

Variants of: B1
Conditions: with hdac1_human HDAC1, Q13547

| Variant | effect of a mutation on the interaction |
| --- | --- |
| G386D | increasing interaction strength |

Variants of: B1
Conditions: with hnf1a_human HNF1A

| Variant | effect of a mutation on the interaction |
| --- | --- |
| G386D | increasing interaction strength |

Variants of: B1
Conditions: with notc2_human NOTCH2, Q04721
Sequence of notc2_human NOTCH2, Q04721 (Q04721 whole entry): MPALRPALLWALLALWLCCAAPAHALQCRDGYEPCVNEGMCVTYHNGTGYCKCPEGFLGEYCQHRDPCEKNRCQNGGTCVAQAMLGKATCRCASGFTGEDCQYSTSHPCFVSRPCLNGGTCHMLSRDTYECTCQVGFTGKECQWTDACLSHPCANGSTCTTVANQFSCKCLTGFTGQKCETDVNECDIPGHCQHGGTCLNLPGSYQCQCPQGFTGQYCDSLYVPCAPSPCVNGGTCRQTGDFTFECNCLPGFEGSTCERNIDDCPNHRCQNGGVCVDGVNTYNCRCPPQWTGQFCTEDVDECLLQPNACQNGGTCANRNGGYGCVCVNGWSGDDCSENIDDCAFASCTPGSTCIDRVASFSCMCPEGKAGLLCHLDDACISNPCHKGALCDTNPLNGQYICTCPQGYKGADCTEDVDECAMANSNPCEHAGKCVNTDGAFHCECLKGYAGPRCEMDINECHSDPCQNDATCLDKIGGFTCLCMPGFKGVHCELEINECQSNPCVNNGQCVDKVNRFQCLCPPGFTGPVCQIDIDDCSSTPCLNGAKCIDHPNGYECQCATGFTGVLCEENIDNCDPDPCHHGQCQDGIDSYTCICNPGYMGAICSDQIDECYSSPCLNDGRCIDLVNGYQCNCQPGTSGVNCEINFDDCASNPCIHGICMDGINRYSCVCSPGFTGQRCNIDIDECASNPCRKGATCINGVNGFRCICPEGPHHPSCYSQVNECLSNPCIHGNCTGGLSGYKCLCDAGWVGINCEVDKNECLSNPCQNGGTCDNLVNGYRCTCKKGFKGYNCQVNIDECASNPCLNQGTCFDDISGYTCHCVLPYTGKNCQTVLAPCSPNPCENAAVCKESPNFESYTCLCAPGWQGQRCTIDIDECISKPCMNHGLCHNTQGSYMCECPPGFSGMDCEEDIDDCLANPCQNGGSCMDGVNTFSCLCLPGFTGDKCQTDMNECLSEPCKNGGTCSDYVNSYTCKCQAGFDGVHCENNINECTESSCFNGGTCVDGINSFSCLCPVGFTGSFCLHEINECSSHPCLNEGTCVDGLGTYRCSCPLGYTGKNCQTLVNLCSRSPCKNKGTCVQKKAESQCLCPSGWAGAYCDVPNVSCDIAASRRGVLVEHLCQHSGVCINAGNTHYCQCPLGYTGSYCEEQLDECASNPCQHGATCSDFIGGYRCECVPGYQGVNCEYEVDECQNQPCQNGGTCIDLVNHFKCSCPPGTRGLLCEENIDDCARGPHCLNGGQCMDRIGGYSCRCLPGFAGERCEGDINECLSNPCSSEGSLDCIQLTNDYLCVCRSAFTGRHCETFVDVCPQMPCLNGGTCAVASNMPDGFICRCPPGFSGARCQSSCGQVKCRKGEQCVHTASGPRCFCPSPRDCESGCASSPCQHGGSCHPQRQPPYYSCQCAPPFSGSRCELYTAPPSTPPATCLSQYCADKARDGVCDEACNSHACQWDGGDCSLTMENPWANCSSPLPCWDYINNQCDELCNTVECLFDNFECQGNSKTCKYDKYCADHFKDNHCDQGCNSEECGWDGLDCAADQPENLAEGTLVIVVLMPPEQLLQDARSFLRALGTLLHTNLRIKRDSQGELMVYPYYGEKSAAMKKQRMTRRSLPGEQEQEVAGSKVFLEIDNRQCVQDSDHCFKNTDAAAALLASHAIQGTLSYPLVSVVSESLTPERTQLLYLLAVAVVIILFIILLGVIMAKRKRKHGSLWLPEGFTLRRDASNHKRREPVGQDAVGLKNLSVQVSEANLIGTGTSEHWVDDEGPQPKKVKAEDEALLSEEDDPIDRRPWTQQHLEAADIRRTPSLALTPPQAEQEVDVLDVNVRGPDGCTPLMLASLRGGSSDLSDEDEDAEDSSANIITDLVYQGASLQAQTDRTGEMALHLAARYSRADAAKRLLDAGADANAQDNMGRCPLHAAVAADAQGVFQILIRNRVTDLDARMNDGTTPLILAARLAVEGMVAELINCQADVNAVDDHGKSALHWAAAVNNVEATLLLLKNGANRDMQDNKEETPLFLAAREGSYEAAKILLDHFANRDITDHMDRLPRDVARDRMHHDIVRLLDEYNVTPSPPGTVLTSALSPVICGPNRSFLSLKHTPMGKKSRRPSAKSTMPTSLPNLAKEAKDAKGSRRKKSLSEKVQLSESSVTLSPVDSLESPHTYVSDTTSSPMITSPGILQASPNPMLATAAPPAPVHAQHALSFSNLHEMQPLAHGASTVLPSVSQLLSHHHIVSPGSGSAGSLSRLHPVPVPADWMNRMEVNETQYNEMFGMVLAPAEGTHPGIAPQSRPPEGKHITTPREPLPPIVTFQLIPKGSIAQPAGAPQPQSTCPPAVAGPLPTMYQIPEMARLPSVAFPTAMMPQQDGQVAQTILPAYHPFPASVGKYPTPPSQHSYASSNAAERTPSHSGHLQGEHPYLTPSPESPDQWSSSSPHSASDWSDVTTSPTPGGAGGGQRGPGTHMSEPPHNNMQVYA

| Variant | effect of a mutation on the interaction |
| --- | --- |
| G386D | causing an interaction |

Variants of: B1
Conditions: with ntrk2_human NTRK2, Q16620

| Variant | effect of a mutation on the interaction |
| --- | --- |
| G386D | causing an interaction |

Variants of: B1
Conditions: with dpod1_human POLD1, P28340
Sequence of dpod1_human POLD1, P28340 (P28340 whole entry): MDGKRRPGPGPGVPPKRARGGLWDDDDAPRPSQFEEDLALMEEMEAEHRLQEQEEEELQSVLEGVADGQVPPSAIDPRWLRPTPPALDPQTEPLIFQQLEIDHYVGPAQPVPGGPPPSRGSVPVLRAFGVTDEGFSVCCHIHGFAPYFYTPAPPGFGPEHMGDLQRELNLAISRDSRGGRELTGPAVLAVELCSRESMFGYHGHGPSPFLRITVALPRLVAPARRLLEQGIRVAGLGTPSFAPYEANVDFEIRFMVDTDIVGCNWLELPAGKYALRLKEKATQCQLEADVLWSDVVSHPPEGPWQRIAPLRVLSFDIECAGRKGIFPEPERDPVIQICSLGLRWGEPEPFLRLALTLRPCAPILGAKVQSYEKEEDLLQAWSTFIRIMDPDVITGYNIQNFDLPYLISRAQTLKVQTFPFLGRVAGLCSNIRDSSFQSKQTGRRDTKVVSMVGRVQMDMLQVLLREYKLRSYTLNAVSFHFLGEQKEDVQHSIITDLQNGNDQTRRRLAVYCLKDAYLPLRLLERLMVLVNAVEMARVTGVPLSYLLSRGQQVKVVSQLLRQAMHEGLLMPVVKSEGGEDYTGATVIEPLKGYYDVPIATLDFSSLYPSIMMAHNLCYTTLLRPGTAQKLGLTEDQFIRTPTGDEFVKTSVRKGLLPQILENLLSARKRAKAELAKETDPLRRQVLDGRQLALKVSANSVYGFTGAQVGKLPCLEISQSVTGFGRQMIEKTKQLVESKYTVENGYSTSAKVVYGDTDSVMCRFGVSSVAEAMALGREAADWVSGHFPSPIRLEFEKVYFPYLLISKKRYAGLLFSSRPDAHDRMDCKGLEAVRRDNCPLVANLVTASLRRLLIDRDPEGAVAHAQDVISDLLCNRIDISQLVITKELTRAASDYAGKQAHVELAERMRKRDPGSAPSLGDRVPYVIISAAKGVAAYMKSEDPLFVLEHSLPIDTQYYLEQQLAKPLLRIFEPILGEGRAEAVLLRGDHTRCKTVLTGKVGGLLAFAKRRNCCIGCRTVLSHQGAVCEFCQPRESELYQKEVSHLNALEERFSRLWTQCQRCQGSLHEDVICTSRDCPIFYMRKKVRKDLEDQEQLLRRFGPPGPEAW

| Variant | effect of a mutation on the interaction |
| --- | --- |
| G386D | increasing interaction strength |

Variants of: B1
Conditions: with socs1_human SOCS1, O15524

| Variant | effect of a mutation on the interaction |
| --- | --- |
| G386D | increasing interaction strength |

Variants of: B1
Conditions: with tshr_human TSHR
Remark: another data set of the same source

| Variant | effect of a mutation on the interaction |
| --- | --- |
| G386D | increasing interaction strength |

Variants of: B1
Conditions: with smad2_human SMAD2, Q15796

| Variant | effect of a mutation on the interaction |
| --- | --- |
| G386D | disrupting interaction strength |

Variants of: B1
Conditions: with smad3_human SMAD3, P84022

| Variant | effect of a mutation on the interaction |
| --- | --- |
| G386D | decreasing interaction strength |

Variants of: B1
Conditions: with cdk6_human CDK6, Q00534

| Variant | effect of a mutation on the interaction |
| --- | --- |
| G386D | decreasing interaction strength |

Variants of: B1
Conditions: with ccnd1_human CCND1, P24385

| Variant | effect of a mutation on the interaction |
| --- | --- |
| G386D | decreasing interaction strength |

Variants of: B1
Conditions: with akt1_human AKT1, P31749
Sequence of akt1_human AKT1, P31749 (P31749 whole entry): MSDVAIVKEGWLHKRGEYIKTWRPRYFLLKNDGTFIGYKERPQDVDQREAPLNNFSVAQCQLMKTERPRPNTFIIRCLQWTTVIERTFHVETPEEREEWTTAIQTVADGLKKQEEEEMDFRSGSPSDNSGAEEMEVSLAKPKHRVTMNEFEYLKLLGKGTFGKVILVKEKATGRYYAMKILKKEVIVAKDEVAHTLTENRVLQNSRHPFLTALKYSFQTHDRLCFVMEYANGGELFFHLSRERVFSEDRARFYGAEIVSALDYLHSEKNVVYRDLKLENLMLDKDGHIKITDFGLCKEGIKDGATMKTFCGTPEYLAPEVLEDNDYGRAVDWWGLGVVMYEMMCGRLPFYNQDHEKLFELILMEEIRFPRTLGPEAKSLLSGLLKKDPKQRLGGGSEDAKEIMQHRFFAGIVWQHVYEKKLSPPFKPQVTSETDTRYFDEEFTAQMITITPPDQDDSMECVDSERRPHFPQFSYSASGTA

| Variant | effect of a mutation on the interaction |
| --- | --- |
| G386D | decreasing interaction strength |

Variants of: B1
Conditions: with pk3cb_human PIK3CB

| Variant | effect of a mutation on the interaction |
| --- | --- |
| G386D | decreasing interaction strength |

Variants of: B1
Conditions: with jak1_human JAK1, P23458

| Variant | effect of a mutation on the interaction |
| --- | --- |
| G386D | decreasing interaction strength |

Variants of: B1
Conditions: with jak3_human JAK3, P52333

| Variant | effect of a mutation on the interaction |
| --- | --- |
| G386D | decreasing interaction strength |

Variants of: B1
Conditions: with baba2_human BABAM2, Q9NXR7

| Variant | effect of a mutation on the interaction |
| --- | --- |
| G386D | increasing interaction strength |
